Test results as given in the supplement of paper PMC10567573.
± gives the standard deviation.

Assay: protein stability index of a GFP-peptide fusion (GPS, HEK-293T) (PSI 1-6); higher = more stable
[1] = treatment: DMSO, c terminus: a fixed tail appended
[2] = treatment: MLN4924 1 uM, 8 h, c terminus: a fixed tail appended
[3] = treatment: DMSO, c terminus: native
[4] = treatment: MLN4924 1 uM, 8 h, c terminus: native
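Also: 24-mer peptide tiles fused after GFP, lentivirally expressed, FACS-sorted into six equal bins by GFP/DsRed ratio, decoded by Illumina sequencing, PSI is the read-weighted mean bin number.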

LRRIRAESGTKGLFAGFLPRIIKA [SLC25A39]
protein stability index [1]: 2.05 ± 0.27
protein stability index [2]: 2.15 ± 0.33

LRTTVHHAFPVVTENRGNEKEFMK [CLCN6]
protein stability index [1]: 4.05 ± 0.27
protein stability index [2]: 4.38 ± 0.098

LRVWDMFFCEGVKIIFRVGLVLLK [TBC1D10A]
protein stability index [1]: 2.6 ± 0.38
protein stability index [2]: 2.37 ± 0.29

LSARDHQKLEREARICRLLKHPNI [CAMK2A]
protein stability index [1]: 2.98 ± 0.069
protein stability index [2]: 3.01 ± 0.26

LSFAAKQRELHSHVTNAMVLVNVL [DHCR7]
protein stability index [1]: 2.49 ± 0.77
protein stability index [2]: 2.44 ± 0.79

LSLCCWGWVSGQLRYSVVEESEPG [PCDHGC5]
protein stability index [1]: 2.65 ± 0.48
protein stability index [2]: 2.25 ± 0.5

LSLEAVICFKEMLANSWNCLPKHL [KLHDC2]
protein stability index [1]: 2.49 ± 0.35
protein stability index [2]: 2.37 ± 0.53

LSSAEENEPSQAETAVEGDPSGVS [C18orf25]
protein stability index [1]: 5.47 ± 0.24
protein stability index [2]: 5.39 ± 0.47

LTHLSLSRRASESSLSSESSESSD [CDC25B]
protein stability index [1]: 5.38 ± 0.24
protein stability index [2]: 5.4 ± 0.12

LTIEERYLPQCSYFKCVQKDIQPY [CCND2]
protein stability index [1]: 2.37 ± 0.31
protein stability index [2]: 2.49 ± 0.24

LTVQFVQGIFVEKYDPTIEDSYRK [RAP1B]
protein stability index [1]: 2.17 ± 0.47
protein stability index [2]: 2.1 ± 0.57

LVLPLVPELLSTHPFFDTAEPDMD [INTS4]
protein stability index [1]: 2.56 ± 0.11
protein stability index [2]: 2.76 ± 0.68

LVLYPTSLAIFSEELDGLCFKGEL [PLEKHN1]
protein stability index [1]: 2.88 ± 0.58
protein stability index [2]: 2.96 ± 0.23

LVSWLPRLNAYRGYCSNQLAAKAL [NET1]
protein stability index [1]: 2.5 ± 1
protein stability index [2]: 2.1 ± 0.2

LVVHTGCKDFLCQFCAQRFGRKDH [PLAGL1]
protein stability index [1]: 2.6 ± 0.34
protein stability index [2]: 2.98 ± 0.091

LVYVAAFSIGLGPMPWLVLSEIFP [SLC2A12]
protein stability index [1]: 3.22 ± 0.44
protein stability index [2]: 3.19 ± 0.7

MAAKSQPNIPKAKSLDGVTNDRTA [DHCR7]
protein stability index [1]: 5 ± 0.15
protein stability index [2]: 5.04 ± 0.16

MASTTTCTRFTDEYQLFEELGKGA [CAMK2D]
protein stability index [1]: 3.74 ± 0.38
protein stability index [2]: 3.64 ± 0.29

MAYAKLMLTVMTKYQANITETQRL [FANCE]
protein stability index [1]: 3.16 ± 0.75
protein stability index [2]: 2.95 ± 0.52

MCLKKNHEEEVSVLRCQLGDRLNV [KRT36]
protein stability index [1]: 3.24 ± 0.29
protein stability index [2]: 3.02 ± 0.35

MCQTKHSPWADGTPCGPAQACMGG [ADAMTS4]
protein stability index [1]: 3.26 ± 0.43
protein stability index [2]: 3.44 ± 0.4

MDGQTDFWRDWEDYAHGFGNISGE [TNXB]
protein stability index [1]: 3.94 ± 0.34
protein stability index [2]: 4.34 ± 0.58

METLCLRASFWLALVGCVISDNPE [EDNRA]
protein stability index [1]: 3.25 ± 0.19
protein stability index [2]: 2.7 ± 0.75

MFLAMLAVVSCASIGSGEPPTGN [CDK11A]
protein stability index [3]: 2.67 ± 0.36
protein stability index [4]: 2.46 ± 0.39

MGLVETKLAIIPGGGGTQRLPRAI [AUH]
protein stability index [1]: 2.99 ± 0.82
protein stability index [2]: 3.34 ± 0.35

MGQKLSGSLKSVEVREPALRPAKR [SPSB4]
protein stability index [1]: 4.37 ± 0.31
protein stability index [2]: 4.62 ± 0.11

MIVDVTPYMNPSPFTVSPNTHVSQ [CLCN6]
protein stability index [1]: 2.47 ± 0.17
protein stability index [2]: 2.8 ± 0.31

MKLSLGGSEMGLSSHLQSSKAGPT [KLHL13]
protein stability index [1]: 3.79 ± 0.26
protein stability index [2]: 3.57 ± 0.29

MLEMVPEKRASAGECLRHPWLNS [SRPK2]
protein stability index [3]: 3.79 ± 0.34
protein stability index [4]: 3.85 ± 0.25

MLKAEETCAPSVSYFKCVQKEVLP [CCND1]
protein stability index [1]: 3.52 ± 0.12
protein stability index [2]: 3.55 ± 0.24

MLLELTRRGQEPLSALLQFGVTYL [BCL2L13]
protein stability index [1]: 2.63 ± 0.59
protein stability index [2]: 2.4 ± 0.41

MLQIPQEKSQAYPRRRRPGCYAYR [MYORG]
protein stability index [1]: 3.22 ± 0.43
protein stability index [2]: 3.23 ± 0.23

MMNQSMMGMNMNIGMSAAGMGLTG [CLINT1]
protein stability index [1]: 2.46 ± 0.39
protein stability index [2]: 2.53 ± 0.3

MNMLWSRMLKDNKKNWRRVYKSLL [CLINT1]
protein stability index [1]: 2.62 ± 0.74
protein stability index [2]: 2.58 ± 0.61

MNSLLIGELSPEQPSFEPTKNKEL [FADS1]
protein stability index [1]: 4.26 ± 0.091
protein stability index [2]: 4.8 ± 0.21

MNVMLKSSPVDLVTATDQKVEKML [IMPA1]
protein stability index [1]: 3.832 ± 0.018
protein stability index [2]: 3.96 ± 0.49

MQPSKPQQPSLNTMIQQQNMQQPM [CLINT1]
protein stability index [1]: 4.1 ± 0.13
protein stability index [2]: 4.34 ± 0.46

MRFASGRPAFVRVRRGHSHLAPSE
protein stability index [1]: 3.08 ± 0.22
protein stability index [2]: 3.29 ± 0.4

MRQDLEEERVALNTEIEKLGRSIV [PKD2L1]
protein stability index [1]: 4.29 ± 0.13
protein stability index [2]: 4.38 ± 0.23

MSWRGRSTYYWPRPRRYVQPPEMI [GAGE1]
protein stability index [1]: 2.64 ± 0.43
protein stability index [2]: 2.55 ± 0.24

MTTSHQPQDRYKAVWLIFFMLGLG [SLC29A1]
protein stability index [1]: 2.52 ± 0.61
protein stability index [2]: 2.41 ± 0.43

MVGQKDSVILSVKFSPFGQWWASV [TLE6]
protein stability index [1]: 2.95 ± 0.35
protein stability index [2]: 2.89 ± 0.35

MVVDFWTWEQTFQELIQEAKPRAT [RTP4]
protein stability index [1]: 2.5 ± 0.49
protein stability index [2]: 2.2 ± 0.36

MYGVDLHHAKDSEGVEIMLGVCAS [EPB41L3]
protein stability index [1]: 2.71 ± 0.3
protein stability index [2]: 2.77 ± 0.51

MYHPRELYPSLGAGYRLGPAQPGA [TBX6]
protein stability index [1]: 2.78 ± 0.25
protein stability index [2]: 2.71 ± 0.11

NATAPRSPSHSPEHRRTARRTPPG [ELOA2]
protein stability index [1]: 5 ± 0.15
protein stability index [2]: 5.2 ± 0.36

NCPAHWLAQDWERCNTTCGRGVKK [ADAMTSL2]
protein stability index [1]: 4.16 ± 0.19
protein stability index [2]: 4.42 ± 0.16

NDIRIFLEKVLEENAQKKRFNQVL [VPS39]
protein stability index [1]: 2.1 ± 0.24
protein stability index [2]: 2.27 ± 0.29

NEKQLHTLRTCYAANPRPDALMKE [ISL2]
protein stability index [1]: 4.05 ± 0.43
protein stability index [2]: 4.15 ± 0.53

NFLACLASFCVETNNGAGFGLSIL [SCAMP3]
protein stability index [1]: 3.02 ± 0.55
protein stability index [2]: 2.99 ± 0.41

NFLTQRENTIAGANHTHTFYGHSH [C10orf62]
protein stability index [1]: 3.1 ± 0.26
protein stability index [2]: 3.09 ± 0.2

NFQNIPKETELPFPKQILDQNNVI [MIA2]
protein stability index [1]: 3.54 ± 0.34
protein stability index [2]: 3.45 ± 0.24

NFSLATNTKYSVYIYVYFHTKLTS [R3HDM1]
protein stability index [1]: 2.6 ± 0.41
protein stability index [2]: 2.36 ± 0.9

NHIGMGVRYNAEKKKVGNYYTTPI [YJU2B]
protein stability index [1]: 3.03 ± 0.22
protein stability index [2]: 3.27 ± 0.18

NIGKSHQGLKLYAVEISDHPGEHE [CPXM2]
protein stability index [1]: 4.24 ± 0.13
protein stability index [2]: 4.07 ± 0.41

NIMPYESTRVCLQPIRGVEGSDYI [PTPRD]
protein stability index [1]: 2.91 ± 0.084
protein stability index [2]: 3.09 ± 0.18

NKVAGHPLAQNERCLHMFLQDEII [SNX3]
protein stability index [1]: 2.64 ± 0.2
protein stability index [2]: 2.7 ± 0.46

NNHESLDEELHLLIISCRKLFYFK [FBXO39]
protein stability index [1]: 2.25 ± 0.32
protein stability index [2]: 2.12 ± 0.16

NPKLPNISLDVLQPSFPEILLESH [POMT2]
protein stability index [1]: 3.52 ± 0.21
protein stability index [2]: 3.84 ± 0.34

NPNFEVAESDYSNNIMKCRSRYDG [LOXL2]
protein stability index [1]: 4.42 ± 0.24
protein stability index [2]: 4.42 ± 0.33

NQNLSNRPSFNRTPIPWLSSGEPV [MYOZ1]
protein stability index [1]: 3.43 ± 0.38
protein stability index [2]: 3.5 ± 0.15

NQPSGLIRTYLGRSPLVSGDESSL [RHOBTB3]
protein stability index [1]: 3.85 ± 0.25
protein stability index [2]: 3.84 ± 0.3

NRASLYSFPEPEAAQPMTKKRKVD [PRAME]
protein stability index [1]: 4.54 ± 0.27
protein stability index [2]: 4.74 ± 0.14

NREHLVMMEKILGPIPSHMIHRTR [CLK3]
protein stability index [1]: 2.79 ± 0.34
protein stability index [2]: 2.89 ± 0.33

NRGINITIYGKTFRVVDCDQFTQV [EFHC1]
protein stability index [1]: 2.24 ± 0.53
protein stability index [2]: 2.72 ± 0.51

NSPSSPSSSAASSSSPSSSSAVV [RHOBTB2]
protein stability index [3]: 5.31 ± 0.12
protein stability index [4]: 5.456 ± 0.023

NTPMEETVRAMTHVINQGMAMYWG [KCNAB2]
protein stability index [1]: 2.92 ± 0.39
protein stability index [2]: 3.13 ± 0.96

NVEMDAAPGVDLSRILNEMRDQYE [KRT16]
protein stability index [1]: 4.34 ± 0.18
protein stability index [2]: 4.46 ± 0.37

NVKYLKKILDELEKVLDQVETELQ [GDAP1]
protein stability index [1]: 4.25 ± 0.077
protein stability index [2]: 4.23 ± 0.14

NYRIAGARLMRSNYPPPLSSAALR [C6orf223]
protein stability index [1]: 3.16 ± 0.41
protein stability index [2]: 3.2 ± 0.3

PAAGRELPPDMTVVPGDHLLEPEV [KCNA3]
protein stability index [1]: 5.3 ± 0.15
protein stability index [2]: 5.31 ± 0.08

PADGWKGERPRSEEDNELNLPNLA [GCH1]
protein stability index [1]: 5.33 ± 0.34
protein stability index [2]: 5.36 ± 0.35

PALDIFGDLFESTPEVAAAPKPDA [SNAP91]
protein stability index [1]: 4.57 ± 0.21
protein stability index [2]: 4.67 ± 0.27

PASFPTWGCDLGVVTRVVTGVYPR [BRF1]
protein stability index [1]: 2.37 ± 0.16
protein stability index [2]: 2.39 ± 0.3

PDGGGPWLEDEPGRGAQGENERVR [ZSWIM9]
protein stability index [1]: 5.41 ± 0.43
protein stability index [2]: 5.5 ± 0.3

PDRVYIHPDSPATGAHWMRQPVSF [TBX6]
protein stability index [1]: 2.45 ± 0.22
protein stability index [2]: 2.54 ± 0.098

PDVTRVGLLQYGSTVKNEFSLKTF [MATN2]
protein stability index [1]: 2.94 ± 0.23
protein stability index [2]: 2.85 ± 0.44

PEENYPSLQMSSAEMPHTETVSPL [NANOGP8]
protein stability index [1]: 5.25 ± 0.12
protein stability index [2]: 5.28 ± 0.18

PEGQKVLFVTFLLIYMVTIMGNLL [OR4A15]
protein stability index [1]: 3.06 ± 0.36
protein stability index [2]: 3.24 ± 0.5

PELNNNQYNRSSNSNGGNLNSPPG [CDC14A]
protein stability index [1]: 4.98 ± 0.15
protein stability index [2]: 4.84 ± 0.27

PGPMDWVPRYTGVAPQDQCKLTCQ [ADAMTS4]
protein stability index [1]: 3.77 ± 0.35
protein stability index [2]: 4.14 ± 0.36

PHIEEQQKKIESYLHNHFIGEGMT [TENT5D]
protein stability index [1]: 3.35 ± 0.33
protein stability index [2]: 3.59 ± 0.27

PILKRKLPGSDVSGRLMGSPPVPG [FBXO28]
protein stability index [1]: 3.9 ± 0.3
protein stability index [2]: 4 ± 0.1

PKNREYDRFYVINYLVRLSFHNLK [ZNF277]
protein stability index [1]: 3.03 ± 1.2
protein stability index [2]: 2.29 ± 0.31

PLGTQVAVNAHQWLDNPERWNKVK [SEPHS2]
protein stability index [1]: 3.65 ± 0.084
protein stability index [2]: 3.61 ± 0.26

PLIIAARNGHAKVVRLLLEHYRVQ [FEM1B]
protein stability index [1]: 2.36 ± 0.36
protein stability index [2]: 2.39 ± 0.2

PLPEAIDPDVGVNSLQSYQLSPNK [PCDHGA10]
protein stability index [1]: 5.35 ± 0.26
protein stability index [2]: 5.25 ± 0.24

PLPKRVAKVPRPPSTLLPTPEEQG [FOXJ1]
protein stability index [1]: 4.97 ± 0.29
protein stability index [2]: 4.82 ± 0.34
